Source: publication PMC2990800 (Molecular and cellular endocrinology, 2010)

Target: the molecule itself
Experiment: FRET or BRET + split reporter

B1: Adenosine A2A receptor (receptor, UniProt P29274 1-412, looked up)
chain: MPIMGSSVYITVELAIAVLAILGNVLVCWAVWLNSNLQNVTNYFVVSLAAADIAVGVLAIPFAITISTGFCAACHGCLFIACFVLVLTQSSIFSLLAIAIDRYIAIRIPLRYNGLVTGTRAKGIIAICWVLSFAIGLTPMLGWNNCGQPKEGKNHSQGCGEGQVACLFEDVVPMNYMVYFNFFACVLVPLLLMLGVYLRIFLAARRQLKQMESQPLPGERARSTLQKEVHAAKSLAIIVGLFALCWLPLHIINCFTFFCPDCSHAPLWLMYLAIVLSHTNSVVNPFIYAYRIREFRQTFRKIIRSHVLRQQEPFKAAGTSARVLAAHGSDGEQVSLRLNGHPPGVWANGSAPHPERRPNGYALGLVSGGSAQESQGNTGLPDVELLSHELKGVCPEPPGLDDPLAQDGAGVS
stoichiometry N: ≥ 3
